The series concerns Escherichia coli TOP10. Kind of series: shrunken log2 fold change of peptide-encoding DNA abundance (4.5 h post-induction vs induction); higher = less antimicrobial activity (less host growth inhibition). As to conditions: time post-induction: 4.5 h; library: site-saturation at positions 5, 18, 19, 20.
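Further: peptides expressed intracellularly from a pBAD plasmid library in pooled LB shake-flask culture, induced with 0.3% L-arabinose, DNA abundance read by NGS, three biological replicates, DESeq2 with apeglm shrinkage.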

As for RRIRMRPPRLPRPRPRPCTIPRP, the “shrunken log2 fold change” value is -0.263.
The same measure for RRIRKRPPRLPRPRPRPKEHPRP: 0.405.
On to RRIRPRPPRLPRPRPRPTKWPRP, for which the “shrunken log2 fold change” value came to 0.187.
For RRIRDRPPRLPRPRPRPGMAPRP, the “shrunken log2 fold change” value amounted to 0.22.
Take RRIRARPPRLPRPRPRPSLHPRP: the “shrunken log2 fold change” value came out at 0.162.
As to RRIRNRPPRLPRPRPRPSWIPRP, the “shrunken log2 fold change” value was -0.425.
As for RRIRFRPPRLPRPRPRPREFPRP, the “shrunken log2 fold change” value is 0.0793.
The same measure for RRIRMRPPRLPRPRPRPAMIPRP: -0.0626; for RRIRERPPRLPRPRPRPNQDPRP: 0.169; for RRIRARPPRLPRPRPRPRMGPRP: 0.692.
With RRIRKRPPRLPRPRPRPDKYPRP, the “shrunken log2 fold change” value is -0.309.
On to RRIRPRPPRLPRPRPRPHRTPRP, for which the “shrunken log2 fold change” value is -0.0599.
The same measure for RRIRLRPPRLPRPRPRPCFLPRP: -0.337.
As to RRIRKRPPRLPRPRPRPDEVPRP, the “shrunken log2 fold change” value turned out to be 1.1.
With RRIRCRPPRLPRPRPRPMVQPRP, the “shrunken log2 fold change” value is -0.292.
As to RRIRYRPPRLPRPRPRPFSSPRP, the “shrunken log2 fold change” value was determined as 0.015.
Regarding RRIRHRPPRLPRPRPRPSRRPRP, the “shrunken log2 fold change” value was -0.105.
As to RRIRCRPPRLPRPRPRPMERPRP, the “shrunken log2 fold change” value is -0.00088.
For RRIRTRPPRLPRPRPRPIPHPRP, the “shrunken log2 fold change” value was -0.307.
Take RRIRPRPPRLPRPRPRPLDKPRP: the “shrunken log2 fold change” value was -0.0324.
Turning to RRIRWRPPRLPRPRPRPCSNPRP, the “shrunken log2 fold change” value is -0.0711.
Take RRIRHRPPRLPRPRPRPHLLPRP: the “shrunken log2 fold change” value is -0.286.
For RRIRKRPPRLPRPRPRPKNSPRP the value was -0.0637; for RRIRHRPPRLPRPRPRPYLMPRP, -0.554; for RRIRNRPPRLPRPRPRPVSHPRP, -0.0709.
RRIRPRPPRLPRPRPRPTEGPRP: the “shrunken log2 fold change” value is -0.0468.
Regarding RRIRWRPPRLPRPRPRPQCVPRP, the “shrunken log2 fold change” value is -0.0311.
The same measure for RRIRCRPPRLPRPRPRPVWGPRP: -0.0554; for RRIRWRPPRLPRPRPRPNHGPRP: -0.16; for RRIRGRPPRLPRPRPRPDFMPRP: 0.545.
Consider RRIRARPPRLPRPRPRPSAAPRP, for which the “shrunken log2 fold change” value was found to be 0.848.
In the case of RRIRRRPPRLPRPRPRPQTFPRP, the “shrunken log2 fold change” value turned out to be 0.264.
Regarding RRIRVRPPRLPRPRPRPDAAPRP, the “shrunken log2 fold change” value came out at 0.976.
For RRIRYRPPRLPRPRPRPFKDPRP, the “shrunken log2 fold change” value is -0.0864.
Regarding RRIRYRPPRLPRPRPRPPELPRP, the “shrunken log2 fold change” value is 0.162.
As to RRIRARPPRLPRPRPRPWFDPRP, the “shrunken log2 fold change” value was -0.178.
The same measure for RRIRCRPPRLPRPRPRPRWAPRP: 0.453; for RRIRYRPPRLPRPRPRPDPRPRP: -0.0317; for RRIRERPPRLPRPRPRPSKWPRP: -0.241.
Turning to RRIRWRPPRLPRPRPRPHFKPRP, the “shrunken log2 fold change” value is -0.179.
Consider RRIRGRPPRLPRPRPRPPPEPRP, for which the “shrunken log2 fold change” value worked out at 2.01.
On to RRIRSRPPRLPRPRPRPDLEPRP, for which the “shrunken log2 fold change” value is -0.0903.
RRIRLRPPRLPRPRPRPDVDPRP: the “shrunken log2 fold change” value was determined as 0.0667.
Take RRIRGRPPRLPRPRPRPDMPPRP: the “shrunken log2 fold change” value amounted to 0.168.
For RRIRDRPPRLPRPRPRPYLTPRP, the “shrunken log2 fold change” value is -0.0558.
The same measure for RRIRSRPPRLPRPRPRPIGMPRP: -0.35; for RRIRCRPPRLPRPRPRPSCEPRP: -0.493; for RRIRSRPPRLPRPRPRPMQSPRP: -0.00143.
RRIRMRPPRLPRPRPRPLSHPRP: the “shrunken log2 fold change” value came to 0.177.
Turning to RRIRRRPPRLPRPRPRPKEFPRP, the “shrunken log2 fold change” value was 0.0689.
As for RRIRFRPPRLPRPRPRPLGSPRP, the “shrunken log2 fold change” value was 0.192.
As for RRIRYRPPRLPRPRPRPGKQPRP, the “shrunken log2 fold change” value is -0.0708.
Take RRIRLRPPRLPRPRPRPFHKPRP: the “shrunken log2 fold change” value was -0.54.
For the sequence RRIRDRPPRLPRPRPRPGLYPRP, the “shrunken log2 fold change” value turned out to be 0.199.
With RRIRMRPPRLPRPRPRPDSWPRP, the “shrunken log2 fold change” value worked out at 1.59.
For RRIRMRPPRLPRPRPRPDQYPRP the value was -0.418.
On to RRIRTRPPRLPRPRPRPSRMPRP, for which the “shrunken log2 fold change” value is -0.0328.
Turning to RRIRKRPPRLPRPRPRPKLGPRP, the “shrunken log2 fold change” value is 0.0679.
As to RRIRCRPPRLPRPRPRPIIAPRP, the “shrunken log2 fold change” value is -0.494.
For RRIRERPPRLPRPRPRPFMDPRP the value was -0.243; for RRIRARPPRLPRPRPRPENNPRP, 0.263.
In the case of RRIRERPPRLPRPRPRPQNSPRP, the “shrunken log2 fold change” value is -0.505.
As for RRIRHRPPRLPRPRPRPCKLPRP, the “shrunken log2 fold change” value was -0.714.
For the sequence RRIRCRPPRLPRPRPRPWQEPRP, the “shrunken log2 fold change” value was -0.153.
Consider RRIRTRPPRLPRPRPRPASEPRP, for which the “shrunken log2 fold change” value was -0.0873.
For the sequence RRIRDRPPRLPRPRPRPLCYPRP, the “shrunken log2 fold change” value was found to be 0.00826.
As for RRIRARPPRLPRPRPRPNFVPRP, the “shrunken log2 fold change” value was -0.122.
With RRIRFRPPRLPRPRPRPVHTPRP, the “shrunken log2 fold change” value was -0.0075.
Consider RRIRWRPPRLPRPRPRPKRVPRP, for which the “shrunken log2 fold change” value amounted to 0.383.
For RRIRHRPPRLPRPRPRPIPGPRP, the “shrunken log2 fold change” value is -0.158.
For RRIRKRPPRLPRPRPRPAMDPRP the value was 0.231.
On to RRIRYRPPRLPRPRPRPPLGPRP, for which the “shrunken log2 fold change” value is -0.258.
Regarding RRIRERPPRLPRPRPRPQGYPRP, the “shrunken log2 fold change” value came to 0.0039.
Regarding RRIRFRPPRLPRPRPRPNIQPRP, the “shrunken log2 fold change” value was -0.973.
For RRIRQRPPRLPRPRPRPKPQPRP the value was -0.0342; for RRIRDRPPRLPRPRPRPFIFPRP, -0.0526.
Turning to RRIRARPPRLPRPRPRPEFRPRP, the “shrunken log2 fold change” value turned out to be 0.327.
With RRIRMRPPRLPRPRPRPELFPRP, the “shrunken log2 fold change” value came to 3.28.
For the sequence RRIRTRPPRLPRPRPRPWDHPRP, the “shrunken log2 fold change” value was -0.155.
As for RRIRNRPPRLPRPRPRPCIYPRP, the “shrunken log2 fold change” value was -0.599.
As for RRIRKRPPRLPRPRPRPIIWPRP, the “shrunken log2 fold change” value was determined as 0.0809.
As for RRIRGRPPRLPRPRPRPFTIPRP, the “shrunken log2 fold change” value was -0.0307.
With RRIRGRPPRLPRPRPRPWCYPRP, the “shrunken log2 fold change” value amounted to 0.0576.
Consider RRIRWRPPRLPRPRPRPLYTPRP, for which the “shrunken log2 fold change” value is -0.24.
Turning to RRIRTRPPRLPRPRPRPVGQPRP, the “shrunken log2 fold change” value came out at 0.00905.
In the case of RRIRTRPPRLPRPRPRPQSIPRP, the “shrunken log2 fold change” value is -0.125.
Consider RRIRERPPRLPRPRPRPDNKPRP, for which the “shrunken log2 fold change” value is -0.75.
In the case of RRIRQRPPRLPRPRPRPDYPPRP, the “shrunken log2 fold change” value stood at 0.00454.
Regarding RRIRERPPRLPRPRPRPCTPPRP, the “shrunken log2 fold change” value was -0.239.
Take RRIRSRPPRLPRPRPRPHDFPRP: the “shrunken log2 fold change” value was -0.0847.
For RRIRTRPPRLPRPRPRPGKRPRP the value was 0.0687.
